This test concerns the target BACE1 structure PDB ID: 1XN3 after removal of BACE inhibitor 1 (apo model used in silico) (UniProt P56817). Description: computed, not measured: MMPBSA (AMBER) on 10000 snapshots of a 50 ns molecular dynamics run.

Sequence of BACE1 structure PDB ID: 1XN3 after removal of BACE inhibitor 1 (apo model used in silico) (P56817 58-446 limits assumed): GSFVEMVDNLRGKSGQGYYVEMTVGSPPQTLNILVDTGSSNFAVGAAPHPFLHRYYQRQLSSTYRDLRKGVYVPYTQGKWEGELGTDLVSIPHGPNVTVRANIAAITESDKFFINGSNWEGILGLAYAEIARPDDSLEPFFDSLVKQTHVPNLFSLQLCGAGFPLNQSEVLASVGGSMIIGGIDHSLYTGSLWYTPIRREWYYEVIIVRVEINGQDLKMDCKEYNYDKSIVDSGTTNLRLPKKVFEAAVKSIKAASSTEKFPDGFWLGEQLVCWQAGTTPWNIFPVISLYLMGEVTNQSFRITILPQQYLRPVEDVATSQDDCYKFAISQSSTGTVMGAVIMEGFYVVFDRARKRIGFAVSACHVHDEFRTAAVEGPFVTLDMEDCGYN

B1: Peptide 65005 (peptide)
peptide: Ac-NLTTYPYFIPL-NH2
B1: the BACE Binding ΔG was -25.4 kcal/mol.

B2: Peptide 65007 (peptide)
peptide: Ac-ALYPYFLPISAK-NH2
In turn, B2 displayed a BACE Binding ΔG of -45.1 kcal/mol.

The record behind these values is patent US20220305006A1, “COMPOSITIONS AND METHODS FOR THE TREATMENT OF NEUROLOGICAL DISEASES AND DISORDERS” (The Regents of the University of California, priority 2019, published 2022).
